Experimental data published in US11844843 (DYNE THERAPEUTICS, dated 2023).
Where a chain is given by its changes, count along the chain named. Names and notes keep the numbering of the source.

T1: recombinant cynomolgus monkey (Macaca fascicularis) TfR1 (cynomolgus monkey (Macaca fascicularis), UniProt Q5RDH6 87-760 (Pongo abelii entry), limits assumed)
T1 construct: Recombinant protein; also called cTfR1; cyTfR1
T1 chain: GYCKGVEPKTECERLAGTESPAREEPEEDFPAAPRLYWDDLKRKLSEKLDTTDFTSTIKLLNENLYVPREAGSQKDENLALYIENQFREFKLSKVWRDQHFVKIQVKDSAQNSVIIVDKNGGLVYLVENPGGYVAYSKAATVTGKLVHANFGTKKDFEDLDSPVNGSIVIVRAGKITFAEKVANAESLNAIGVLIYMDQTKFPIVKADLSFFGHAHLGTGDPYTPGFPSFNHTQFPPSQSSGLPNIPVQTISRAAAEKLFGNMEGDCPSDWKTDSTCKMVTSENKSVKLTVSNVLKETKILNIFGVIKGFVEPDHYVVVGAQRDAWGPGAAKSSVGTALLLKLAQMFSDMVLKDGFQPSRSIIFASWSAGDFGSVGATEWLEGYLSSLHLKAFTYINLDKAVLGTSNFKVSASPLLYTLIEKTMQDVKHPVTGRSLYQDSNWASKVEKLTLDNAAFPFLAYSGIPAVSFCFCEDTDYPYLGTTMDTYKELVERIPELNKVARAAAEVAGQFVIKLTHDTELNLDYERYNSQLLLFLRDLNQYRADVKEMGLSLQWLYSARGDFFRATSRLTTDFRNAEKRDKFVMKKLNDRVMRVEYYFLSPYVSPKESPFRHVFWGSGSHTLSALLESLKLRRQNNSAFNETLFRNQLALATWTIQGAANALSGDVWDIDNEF

B1: humanized anti-TfR Fab 3A4 VH3 (N54T)/Vκ4 (Fab, V domains shown)
VH: EVQLVQSGSELKKPGASVKVSCTASGFNIKDDYMYWVRQPPGKGLEWIGWIDPETGDTEYASKFQDRVTVTADTSTNTAYMELSSLRSEDTAVYYCTLWLRRGLDYWGQGTLVTVSS
VL: DIVMTQSPLSLPVTPGEPASISCRSSKSLLHSNGYTYLFWFQQRPGQSPRLLIYRMSNLASGVPDRFSGSGSGTDFTLKISRVEAEDVGVYYCMQHLEYPFTFGGGTKVEIKR
notes: also called 3A4 (VH3-N54T/Vk4)
B2: humanized anti-TfR Fab 3A4 VH3 (N54S)/Vκ4 (Fab, V domains shown)
VH: B1 VH with T55S
VL: B1 VL
notes: also called 3A4 (VH3-N54S/Vk4)
B3: humanized anti-TfR Fab 3M12 VH3/Vκ2 (Fab, V domains shown)
VH: QVQLQESGPGLVKPSQTLSLTCSVTGYSITSGYYWNWIRQPPGKGLEWMGYITFDGANNYNPSLKNRVSISRDTSKNQFSLKLSSVTAEDTATYYCTRSSYDYDVLDYWGQGTTVTVSS
VL: DIQMTQSPSSLSASVGDRVTITCRASQDISNFLNWYQQKPGQPVKLLIYYTSRLHSGVPSRFSGSGSGTDFTLTISSLQPEDFATYFCQQGHTLPYTFGQGTKLEIKR
notes: also called 3M12 (VH3/Vk2)
B4: humanized anti-TfR Fab 5H12 VH5 (C33Y)/Vκ4 (Fab, V domains shown)
VH: QVQLVQSGAEVKKPGASVKVSCKASGYSFTDYYINWVRQAPGQGLEWMGWIYPGSGNTRYSERFKGRVTITRDTSASTAYMELSSLRSEDTAVYYCAREDYYPYHGMDYWGQGTLVTVSS
VL: DIVMTQSPDSLAVSLGERATINCRASESVDGYDNSFMHWYQQKPGQPPKLLIFRASNLESGVPDRFSGSGSGTDFTLTISSLQAEDVAVYYCQQSSEDPWTFGQGTKLEIKR
notes: also called 5H12 (VH5-C33Y/Vk4)
B5: humanized anti-TfR Fab 5H12 VH5 (C33Y)/Vκ3 (Fab, V domains shown)
VH: B4 VH
VL: B4 VL with M4L, G72R
notes: also called 5H12 (VH5-C33Y/Vk3)

The binders below were run against T2, recombinant human TfR1 (transferrin receptor protein 1) (human, UniProt P02786 89-760) (assay: Biacore, d0; TfR1 species not stated).
T2 construct: Recombinant protein in SPR and ELISA; they were assigned to this molecule; also called hTfR1; huTfR1

| Kd [nM] | Binder |
| --- | --- |
| 3.09 | B1 |
| 1.34 | B2 |
| 0.395 | B3 |
| 0.626 | B4 |
| 0.627 | B5 |

Target: T1, recombinant cynomolgus monkey (Macaca …)
Assay: ELISA on plate-coated recombinant cTfR1 (target per paragraph 617), fluorescent anti-(H+L) IgG-A488 detection, % normalized RFUs
Method: (§1) To measure binding of humanized anti-TfR antibodies to TfR1, ELISAs were conducted. High binding, black, flat bottom, 96 well plates (Corning #3925) were first coated with 100 μL/well of recombinant huTfR1 at 1 μg/mL in PBS and incubated at 4° C. overnight. Wells were emptied and residual liquid was removed. Blocking was conducted by adding 200 μL of 1% BSA (w/w) in PBS to each well. Blocking was allowed to proceed for 2 hours at room temperature on a shaker at 30) rpm. After blocking, liquid was removed and wells were washed three times with 300 μL of TBST. Anti-TfR1 antibodies were then added in 0.5% BSA/TBST in triplicate in an 8 point serial dilution (dilution range 5 μg/mL-5 ng/mL). A positive control and isotype controls were also included on the ELISA plate. The plate was incubated at room temperature on an orbital shaker for 60 minutes at 300 rpm, and the plate was washed three times with 300 μL of TBST. Anti-(H+L)IgG-A488 (1:500) (Invitrogen #A11013) was diluted in 0.5% BSA in TBST, and 100 μL was added to each well. The plate was then allowed to incubate at room temperature for 60 minutes at 300 rpm on orbital shaker. The liquid was removed and the plate was washed four times with 300 μL of TBST. Absorbance was then measured at 495 nm excitation and 50 nm emission (with a 15 nm bandwidth) on a plate reader. Data was recorded and analyzed for $EC50$. […]

| EC50 [nM] | Binder |
| --- | --- |
| 3.4 | B4 |
| 2 | B5 |

Target: T1, recombinant cynomolgus monkey (Macaca …)
Assay: ELISA on plate-coated recombinant cTfR1, fluorescent anti-(H+L) IgG-A488 detection, % normalized RFUs
Method: as §1

| EC50 [nM] | Binder |
| --- | --- |
| > 100 | B1 |
| > 100 | B2 |

The binders below were run against T2, recombinant human TfR1 (transferrin …) (assay: Biacore, d25; TfR1 species not stated).

| Kd [nM] | Binder |
| --- | --- |
| 3.01 | B1 |
| 1.39 | B2 |
| 0.567 | B3 |
| 1.33 | B4 |
| 1.07 | B5 |

Target: T1, recombinant cynomolgus monkey (Macaca …)
Assay: ELISA on cTfR1, unconjugated Fab, % normalized RFUs

| EC50 [nM] | Binder |
| --- | --- |
| > 100 | B1 |
| > 100 | B2 |

These binders were tested against T2, recombinant human TfR1 (transferrin …) (assay: ELISA on hTfR1, unconjugated Fab, % normalized RFUs).

| EC50 [nM] | Binder |
| --- | --- |
| 2.3 | B1 |
| 1.9 | B2 |

Target: T1, recombinant cynomolgus monkey (Macaca …)
Assay: ELISA on cTfR1, unconjugated Fab, % normalized RFUs
Remark: another data set of the same source

| EC50 [nM] | Binder |
| --- | --- |
| 3.4 | B4 |
| 2 | B5 |

These binders were tested against T2, recombinant human TfR1 (transferrin …) (assay: ELISA on plate-coated recombinant hTfR1, fluorescent anti-(H+L) IgG-A488 detection, % normalized RFUs).
Method: as §1, with “Absorbance was then measured at 495 nm excitation and 50 nm emission (with a 15 nm bandwidth) on a plate reader.” left out

| EC50 [nM] | Binder |
| --- | --- |
| 7.2 | B3 |

Each binder was assayed against T2, recombinant human TfR1 (transferrin …) (assay: kinetic analysis (Biacore), Table 7; TfR1 species not stated).

| Kd [nM] | koff [s⁻¹] | kon [M⁻¹ s⁻¹] | Binder |
| --- | --- | --- | --- |
| 3.09 | 0.000705 | 228000 | B1 |
| 1.34 |  |  | B2 |
| 0.395 | 0.000104 | 264000 | B3 |
| 0.626 | 0.000117 | 186000 | B4 |
| 0.627 | 0.000122 | 195000 | B5 |

Target: T1, recombinant cynomolgus monkey (Macaca …)
Assay: ELISA on cTfR1, unconjugated Fab, % normalized RFUs
Remark: another data set of the same source

| EC50 [nM] | Binder |
| --- | --- |
| 25.5 | B3 |

Target: T2, recombinant human TfR1 (transferrin …)
Assay: ELISA on hTfR1, unconjugated Fab, % normalized RFUs
Remark: another data set of the same source

| EC50 [nM] | Binder |
| --- | --- |
| 7.2 | B3 |

Target: T1, recombinant cynomolgus monkey (Macaca …)
Assay: Table 14, unconjugated Fab, d0; method not named (values equal ELISA row of Table 13)

| Binding affinity [nM] | Binder |
| --- | --- |
| 156 | B1 |
| 398 | B2 |
| 9.9 | B3 |
| 3.3 | B4 |
| 2.1 | B5 |

The binders below were run against T2, recombinant human TfR1 (transferrin …) in the same assay as above.

| Binding affinity [nM] | Binder |
| --- | --- |
| 2.6 | B1 |
| 1.6 | B2 |
| 0.8 | B3 |
| 2.8 | B4 |
| 6.3 | B5 |

Target: T2, recombinant human TfR1 (transferrin …)
Assay: ELISA on hTfR1, unconjugated Fab, % normalized RFUs
Remark: another data set of the same source

| EC50 [nM] | Binder |
| --- | --- |
| > 100 | B4 |
| > 100 | B5 |

Target: T2, recombinant human TfR1 (transferrin …)
Assay: ELISA on plate-coated recombinant hTfR1, fluorescent anti-(H+L) IgG-A488 detection, % normalized RFUs
Remark: another data set of the same source
Method: To measure binding of humanized anti-TfR antibodies to TfR1, ELISAs were conducted. High binding, black, flat bottom, 96 well plates (Corning #3925) were first coated with 100 μL/well of recombinant huTfR1 at 1 μg/mL in PBS and incubated at 4° C. overnight. Wells were emptied and residual liquid was removed. Blocking was conducted by adding 200 μL of 1% BSA (w/w) in PBS to each well. Blocking was allowed to proceed for 2 hours at room temperature on a shaker at 30) rpm. After blocking, liquid was removed and wells were washed three times with 300 μL of TBST. Anti-TfR1 antibodies were then added in 0.5% BSA/TBST in triplicate in an 8 point serial dilution (dilution range 5 μg/mL-5 ng/mL). A positive control and isotype controls were also included on the ELISA plate. The plate was incubated at room temperature on an orbital shaker for 60 minutes at 300 rpm, and the plate was washed three times with 300 μL of TBST. Anti-(H+L)IgG-A488 (1:500) (Invitrogen #A11013) was diluted in 0.5% BSA in TBST, and 100 μL was added to each well. The plate was then allowed to incubate at room temperature for 60 minutes at 300 rpm on orbital shaker. The liquid was removed and the plate was washed four times with 300 μL of TBST. Absorbance was then measured at 495 nm excitation and […] (with a 15 nm bandwidth) on a plate reader. Data was recorded and analyzed for $EC50$. […] ELISA measurements were conducted using cynomolgus monkey (Macaca fascicularis) TfR1 (cTfR1) according to the same protocol described above for hTfR1, and results are shown in FIGS. 9B, 9D, and 9F.

| EC50 [nM] | Binder |
| --- | --- |
| 2.3 | B1 |
| 1.9 | B2 |
| > 100 | B4 |
| > 100 | B5 |

Target: T1, recombinant cynomolgus monkey (Macaca …)
Assay: ELISA on plate-coated recombinant cTfR1, fluorescent anti-(H+L) IgG-A488 detection, % normalized RFUs
Remark: another data set of the same source
Method: as §1, with “Absorbance was then measured at 495 nm excitation and 50 nm emission (with a 15 nm bandwidth) on a plate reader.” left out

| EC50 [nM] | Binder |
| --- | --- |
| 25.5 | B3 |

Target: T1, recombinant cynomolgus monkey (Macaca …)
Assay: Table 14, unconjugated Fab, d9 (after 9 days at 40 C); method not named

| Binding affinity [nM] | Binder |
| --- | --- |
| 128 | B1 |
| 248 | B2 |
| 19.5 | B3 |
| 0.26 | B4 |
| 0.69 | B5 |

The binders below were run against T2, recombinant human TfR1 (transferrin …) in the same assay as above.

| Binding affinity [nM] | Binder |
| --- | --- |
| 0.4 | B1 |
| 0.65 | B2 |
| 0.98 | B3 |
| 1730 | B4 |
| 71.9 | B5 |

Target: T1, recombinant cynomolgus monkey (Macaca …)
Assay: ELISA, recombinant TfR1 coated, unconjugated Fab (row 'Fab binding affinity ELISA')

| EC50 [nM] | Binder |
| --- | --- |
| 156 | B1 |
| 398 | B2 |
| 9.9 | B3 |
| 3.3 | B4 |
| 2.1 | B5 |

What follows are binders tested against T2, recombinant human TfR1 (transferrin …) in the same assay as above.

| EC50 [nM] | Binder |
| --- | --- |
| 2.6 | B1 |
| 1.6 | B2 |
| 0.8 | B3 |
| 2.8 | B4 |
| 6.3 | B5 |
